Laboratory results taken from patent US20110165066A1 (AbbVie / Abbott, published 2011).
Positions count from the first letter of the chain named.

T1: mouse IL-13 (mouse, UniProt P20109 26-131, limits assumed)
T1 construct: also called mIL-13; murine IL-13
T1 sequence (looked up): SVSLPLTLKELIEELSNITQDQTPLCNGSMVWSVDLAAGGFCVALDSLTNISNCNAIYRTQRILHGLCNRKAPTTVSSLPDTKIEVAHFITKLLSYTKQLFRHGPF

B1: 13C5.1 (antibody, human IgG1, V domains shown)
VH: EVTLKESGPVLVKPTETLTLTCTFSGFSLSTSDMGVDWIRQPPGKALEWLAHIWWDDVKRYNPALKSRLTISKDTSKSQVVLTMTNMDPVDTATYYCARTVSSGYIYYAMDYWGQGTTVTVSS
VL: DIQMTQSPSSLSASVGDRVTITCRASQDIRNYLNWYQRKPGKVVKLLIYYTSKLHSGVPSRFSGSGSGTDFTLTISSLQPEDVATYYCQQGNTLPLTFGGGTKVEIKR
notes: Humanized
B2: 13C5.2 (antibody, human IgG1, V domains shown)
VH: B1 VH
VL: B1 VL with S7T, T22S, Y49F, F71Y, Y87F
notes: Humanized
B3: 21D9 (antibody, V domains shown)
VH: QVQLQQSGDDLVKPGASVKLSCKASGYTFTSYWINWIKQRPGQGLEWIGHIAPGSGETYDNEMFKDKAKLTVDTSSNTAYIHLSSLSSEDSAVYFCARGSFTFFYAMDYWGQGTSVTVSS
VL: DVLMTQTPLSLPVSLGDQASISCRSSQNIVHSNGKTYLEWYLQRPGQSPKLLIYKVSNRFSGVPDRFSGSGSGTDFTLKISRVEAEDLGVYYCFQGSHVPYTFGGGTKLEIKR
B4: 22D10 (antibody, V domains shown)
VH: B3 VH with N77S
VL: B3 VL
B5: 5G1.1 (antibody, human IgG1, V domains shown)
VH: EVQLVQSGAEVKKPGASVKVSCKASGYTFTTYGVSWVRQAPGQGLEWIGEIYPGNYNTYYNEKFRGKATMTTDTSTSTAYMELRSLRSDDTAVYYCSRWRTSYFSDYGYFDYWGQGTTVTVSS
VL: DVVMTQSPLSLPVTLGQPASISCRSSQSLVHSHGNTYLHWYQQRPGQSPRLLIYTVSNRFSGVPDRFSGSGSGTDFTLKISRVEAEDVGVYYCSQSTHVPYTFGGGTKVEIKR
notes: Humanized
B6: 5G1.5 (antibody, human IgG1, V domains shown)
VH: B5 VH with E1Q, M70L, T72A, T74K, R84S, D89E, T118L
VL: DIVMTQSPLSLPVTPGQPASISCRSSQSLVHSHGNTYLHWYLQKPGQSPKLLIYTVSNRFSGVPDRFSGSGSGTDFTLKISRVEAEDVGVYYCSQSTHVPYTFGGGTKVEIK
notes: Humanized; The heavy chain row is printed 'VN 5G1.5'
B7: 5G1.2 (antibody, human IgG1, V domains shown)
VH: B5 VH with M70L, T72A, T74K, R84S, Y95F
VL: B5 VL with Y92F
notes: Humanized

Assays:
[1] = biological target: T2, human IL-13 variant (R130Q) (human, UniProt P35225 35-146); assay: cell-based or functional assay
human IL-13 wild type [2] = biological target: T3, human IL-13 wild type (human, UniProt P35225 35-146); assay: cell-based or functional assay
human IL-13 wild type [3] = biological target: T3, human IL-13 wild type; assay: SPR (Biacore)
Experimental: (§1) The BIACORE assay (Biacore, Inc, Piscataway, N.J.) determines the affinity of antibodies with kinetic measurements of on-, off-rate constants. […] All chemicals were obtained from Biacore® AB (Uppsala, Sweden) or otherwise from a different source as described in the text. Approximately 5000 RU of goat anti-mouse IgG, (Fcγ), fragment specific polyclonal antibody (Pierce Biotechnology Inc, Rockford, Ill.) diluted in 10 mM sodium acetate (pH 4.5) was directly immobilized across a CM5 research grade biosensor chip using a standard amine coupling kit according to manufacturer's instructions and procedures at 25 μg/ml. Unreacted moieties on the biosensor surface were blocked with ethanolamine. Modified carboxymethyl dextran surface in flowcell 2 and 4 was used as a reaction surface. Unmodified carboxymethyl dextran without goat anti-mouse IgG in flow cell 1 and 3 was used as the reference surface. For kinetic analysis, rate equations derived from the 1:1 Langmuir binding model were fitted simultaneously to association and dissociation phases of all eight injections (using global fit analysis) with the use of Biaevaluation 4.0.1 software. Purified antibodies were diluted in HEPES-buffered saline for capture across goat anti-mouse IgG specific reaction surfaces. Mouse antibodies to be captured as a ligand (25 μg/ml) were injected over reaction matrices at a flow rate of 5 μl/min. The association and dissociation rate constants, kₒₙ (unit M⁻¹s⁻¹) and koff (unit s⁻¹) were determined under a continuous flow rate of 25 μl/min Rate constants were derived by making kinetic binding measurements at ten different antigen concentrations ranging from 10-200 nM. […] Binding is recorded as a function of time and kinetic rate constants are calculated.

[4] = biological target: T2, human IL-13 variant (R130Q); assay: SPR (Biacore), mAb captured, IL-13 as analyte
Experimental: as §1

human IL-13 wild type [5] = biological target: T3, human IL-13 wild type; assay: SPR (Biacore), mAb captured, IL-13 as analyte
Experimental: as §1

cynomolgus IL-13 = cynomolgus IL-13 (cynomolgus, UniProt Q0PW92 21-132); assay: cell-based or functional assay
[6] = biological target: T2, human IL-13 variant (R130Q); assay: cell-based or functional assay; remark: listed apart in the source
human IL-13 wild type [7] = biological target: T3, human IL-13 wild type; assay: cell-based or functional assay; remark: listed apart in the source
mouse IL-13 = biological target: T1, mouse IL-13; assay: indirect ELISA, captured mAb, biotinylated mouse IL-13
Experimental: Murine anti-human IL-13 mAbs were prepared at various concentrations ranging from 0.1 to 100 ng/ml in PBS containing 0.1% BSA; 50 ul of each antibody dilution was added to the coated ELISA plate and incubated for 1 hour at room temperature. Wells were washed 3 times with PBS containing 0.05% Tween-20. […] Wells were washed 3 times with PBS containing 0.05% Tween-20. Streptavidin HRP (Pierce #21126, Rockland, Ill.) was diluted 1:20000 in PBS containing 0.1% BSA; […] was added and the plates incubated for 1 hour at room temperature. Plates were washed 3 times with PBS containing 0.05% Tween-20. Fifty microliters of TMB solution (Sigma # T0440, St. Louis, Mo.) was added to each well and incubated for 10 minutes at room temperature. The reaction was stopped by addition of 1N sulphuric acid. Plates were read spectrophotmetrically at a wavelength of 450 nm.

T3 sequence (P35225 other isoform, or with tags, fused parts or gaps limits assumed): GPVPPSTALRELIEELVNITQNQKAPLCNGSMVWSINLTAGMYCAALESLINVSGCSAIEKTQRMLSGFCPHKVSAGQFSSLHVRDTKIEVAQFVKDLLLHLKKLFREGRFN
T2 sequence (P35225 35-146 limits assumed, stated change not applied): as the sequence (P35225 other isoform, or with tags, fused parts or gaps limits assumed) above, with R110Q counted along it
Chain of cynomolgus IL-13 (Q0PW92 entry or part of it): as the sequence (P35225 other isoform, or with tags, fused parts or gaps limits assumed) above, with G1S, R10K, M42V, S67N, H83R, L100V, R110Q counted along it

Row | Potency (IC50), A-549 bioassay [1] [nM] | Potency (IC50), A-549 bioassay (human IL-13 wild type [2]) [nM] | Kd (human IL-13 wild type [3]) [nM] | koff (human IL-13 wild type [3]) [s⁻¹] | kon (human IL-13 wild type [3]) [M⁻¹ s⁻¹] | Kd [4] [nM] | koff [4] [s⁻¹] | kon [4] [M⁻¹ s⁻¹] | Kd (human IL-13 wild type [5]) [nM] | koff (human IL-13 wild type [5]) [s⁻¹] | kon (human IL-13 wild type [5]) [M⁻¹ s⁻¹] | Average IC50, IL-13-induced TARC production by A-549 cells (cynomolgus IL-13) [nM] | Average IC50, IL-13-induced TARC production by A-549 cells [6] [nM] | Average IC50, IL-13-induced TARC production by A-549 cells (human IL-13 wild type [7]) [nM] | binding result (mouse IL-13) | Binder
1 | 0.369 | 0.868 | 0.71 | 0.000474 | 668000 | – | – | – | – | – | – | – | – | – | – | B1
2 | 0.13 | 0.193 | 0.0979 | 0.000123 | 1.26e+06 | – | – | – | – | – | – | – | – | – | – | B2
3 | – | – | – | – | – | 0.0744 | 6.18e-05 | 831000 | 0.0772 | 6.58e-05 | 852000 | 0.34 | 0.136 | 0.0682 | no binding (tested: 0.1 to 100 ng/ml) | B3
4 | – | – | – | – | – | 0.632 | 0.000155 | 245000 | 0.356 | 6.5e-05 | 182000 | 6.11 | 0.54 | 0.284 | no binding (tested: 0.1 to 100 ng/ml) | B4
5 | 0.0741 | 0.029 | 0.0272 | 2.14e-05 | 786000 | – | – | – | – | – | – | – | – | – | – | B5
6 | 0.0655 | 0.114 | 0.022 | 1.91e-05 | 869000 | – | – | – | – | – | – | – | – | – | – | B6
7 | 0.0553 | 0.0295 | 0.105 | 8.81e-05 | 835000 | – | – | – | – | – | – | – | – | – | – | B7
